Source: US20140357577A1, “HIV Membrane Fusion Inhibitors” (priority 2011, published 2014)
Starred links: 1 amine or outer side, 2 acyl side, 3 side chain; linkers in the order of their positions; H or OH if unused. Positions of bridges follow the written chain, without caps; N, C: chain ends. Non-standard residues stand in square brackets, D forms with d. Primed or numbered codes have the meaning given here. *: point of attachment. cholesteryl‑oxycarbonylmethyl = CC(C)CCC[C@@H](C)[C@H]1CC[C@H]2[C@@H]3CC=C4C[C@@H](OC(=O)C*)CC[C@]4(C)[C@H]3CC[C@]12C; B21″ = 2,7-dimethylnaphtyl linker joining two Cys, c1cc2ccc(C[*:2])cc2cc1C[*:1]; tBuAla = CC(C)(C)C[C@H](N)C(=O)O; Suc = O=C(CCC(=O)[*:2])[*:1]; hCys = N[C@@H](CCS)C(=O)O; Nva = CCC[C@H](N)C(=O)O; Hexanoyl = CCCCCC(=O)*; Pentanoyl = CCCCC(=O)*; B1 = not defined here; B3 = not defined here; Butyryl = CCCC(=O)*

These molecules were tested against gp41 of HIV-1 strain HXB2D with mutation V38A (HIV-1 strain HXB2D, UniProt P04578) (assay: cell-based or functional assay). Details: not given.

Molecule	fold change in EC50, HIV-HXB2D V38A mutant [fold]
Ac-ECYLACIEALIRAAQEQQEKNEAALR-NH2 (linker 2-6 via B1; reading uncertain) [peptide 45]	14
Hexanoyl-ECYLACIEELIRKAQEQQEKNEAALR-NH2 (linker 2-6 via B1; reading uncertain) [peptide 42]	2
Suc-CYLACIEELIRKAQEQQEKNEAAL[tBuAla]-NH2 (linker 1-5 via B1; reading uncertain) [peptide 24]	26
Suc-[hCys]YLA[hCys]IEALIRAAREQQEKNEALLR-NH2 (linker 1-5 via B1; reading uncertain) [peptide 28]	4
Pentanoyl-ECYLACIEALIRAAQEQQEKNEAALR-NH2 (linker 2-6 via B1; reading uncertain) [peptide 38]	3
Ac-SWETWEREIENYTRQIYRILEESQEQQDRNERDLLE-NH2 [Sifuvirtide]	1
Butyryl-ECYLACIEELIRKAQEQQEKNEAALR-NH2 (linker 2-6 via B1; reading uncertain) [peptide 40]	3
Suc-ANYLALIEALIRAAQEQQEKNEAALRGSGC(cholesteryl‑oxycarbonylmethyl)-NH2 (SMILES CC[C@H](C)[C@H](NC(=O)[C@H](CC(C)C)NC(=O)[C@H](C)NC(=O)[C@H](CCC(=O)O)NC(=O)[C@@H](NC(=O)[C@H](CC(C)C)NC(=O)[C@H](C)NC(=O)[C@H](CC(C)C)NC(=O)[C@H](Cc1ccc(O)cc1)NC(=O)[C@H](CC(N)=O)NC(=O)[C@H](C)NC(=O)CCC(=O)O)[C@@H](C)CC)C(=O)N[C@@H](CCCNC(=N)N)C(=O)N[C@@H](C)C(=O)N[C@@H](C)C(=O)N[C@@H](CCC(N)=O)C(=O)N[C@@H](CCC(=O)O)C(=O)N[C@@H](CCC(N)=O)C(=O)N[C@@H](CCC(N)=O)C(=O)N[C@@H](CCC(=O)O)C(=O)N[C@@H](CCCCN)C(=O)N[C@@H](CC(N)=O)C(=O)N[C@@H](CCC(=O)O)C(=O)N[C@@H](C)C(=O)N[C@@H](C)C(=O)N[C@@H](CC(C)C)C(=O)N[C@@H](CCCNC(=N)N)C(=O)NCC(=O)N[C@@H](CO)C(=O)NCC(=O)N[C@@H](CSCC(=O)O[C@H]1CC[C@@]2(C)C(=CC[C@H]3[C@@H]4CC[C@H]([C@H](C)CCCC(C)C)[C@@]4(C)CC[C@@H]32)C1)C(N)=O) [peptide 35]	4
Ac-ECYLACIEELIRKAQEQQEKNEAALR-NH2 (linker 2-6 via B1; reading uncertain) [peptide 37]	7
Suc-ACYLACIDELIAKAQEQQEKNEAALR-NH2 (linker 2-6 via B1; reading uncertain) [peptide 36]	23
Suc-ACYLACIDELIKKAQEQQEKNEAALR-NH2 (linker 2-6 via B1; reading uncertain) [peptide 30]	8
Suc-ECYLACIEALIRAAQEQQEKNEAALR-NH2 (linker 2-6 via B1; reading uncertain) [peptide 33]	11
Suc-CYLACIEALIRAAQEQQEKNEAALR-NH2 (linker 1-5 via B1; reading uncertain) [peptide 26]	19
Pentanoyl-ECYLACIEALIRAAQEQQEKNEAALR-NH2 (linker 2-6 via B21″; SMILES CCCCC(=O)N[C@@H](CCC(=O)O)C(=O)N[C@H]1CSCc2ccc3ccc(cc3c2)CSC[C@@H](C(=O)N[C@H](C(=O)N[C@@H](CCC(=O)O)C(=O)N[C@@H](C)C(=O)N[C@@H](CC(C)C)C(=O)N[C@H](C(=O)N[C@@H](CCCNC(=N)N)C(=O)N[C@@H](C)C(=O)N[C@@H](C)C(=O)N[C@@H](CCC(N)=O)C(=O)N[C@@H](CCC(=O)O)C(=O)N[C@@H](CCC(N)=O)C(=O)N[C@@H](CCC(N)=O)C(=O)N[C@@H](CCC(=O)O)C(=O)N[C@@H](CCCCN)C(=O)N[C@@H](CC(N)=O)C(=O)N[C@@H](CCC(=O)O)C(=O)N[C@@H](C)C(=O)N[C@@H](C)C(=O)N[C@@H](CC(C)C)C(=O)N[C@@H](CCCNC(=N)N)C(N)=O)[C@@H](C)CC)[C@@H](C)CC)NC(=O)[C@H](C)NC(=O)[C@H](CC(C)C)NC(=O)[C@H](Cc2ccc(O)cc2)NC1=O) [peptide 39]	2
Suc-ACY[Nva]ACIEALIRAAQEQQEKNEAALR-NH2 (linker 2-6 via B1; reading uncertain) [peptide 44]	15
Suc-ENYLRLIEELIRKAQEQQEKNEAALRGSGC(cholesteryl‑oxycarbonylmethyl)-NH2 (SMILES CC[C@H](C)[C@H](NC(=O)[C@H](CC(C)C)NC(=O)[C@H](CCC(=O)O)NC(=O)[C@H](CCC(=O)O)NC(=O)[C@@H](NC(=O)[C@H](CC(C)C)NC(=O)[C@H](CCCNC(=N)N)NC(=O)[C@H](CC(C)C)NC(=O)[C@H](Cc1ccc(O)cc1)NC(=O)[C@H](CC(N)=O)NC(=O)[C@H](CCC(=O)O)NC(=O)CCC(=O)O)[C@@H](C)CC)C(=O)N[C@@H](CCCNC(=N)N)C(=O)N[C@@H](CCCCN)C(=O)N[C@@H](C)C(=O)N[C@@H](CCC(N)=O)C(=O)N[C@@H](CCC(=O)O)C(=O)N[C@@H](CCC(N)=O)C(=O)N[C@@H](CCC(N)=O)C(=O)N[C@@H](CCC(=O)O)C(=O)N[C@@H](CCCCN)C(=O)N[C@@H](CC(N)=O)C(=O)N[C@@H](CCC(=O)O)C(=O)N[C@@H](C)C(=O)N[C@@H](C)C(=O)N[C@@H](CC(C)C)C(=O)N[C@@H](CCCNC(=N)N)C(=O)NCC(=O)N[C@@H](CO)C(=O)NCC(=O)N[C@@H](CSCC(=O)O[C@H]1CC[C@@]2(C)C(=CC[C@H]3[C@@H]4CC[C@H]([C@H](C)CCCC(C)C)[C@@]4(C)CC[C@@H]32)C1)C(N)=O) [peptide 32]	1
Suc-ACYLACIEALIRAAQEQQEKNEAALR-NH2 (linker 2-6 via B1; reading uncertain) [peptide 43]	19
Suc-CYLACIEELIRKAQEQQEKNEAAL[tBuAla]-NH2 (linker 1-5 via B3; reading uncertain) [peptide 27]	28
Suc-ECYLRCIEELIRKAQEQQEKNEAALR-NH2 (linker 2-6 via B1; reading uncertain) [peptide 29]	7
Suc-ACYLACIEELIRKAQEQQEKNEAALR-NH2 (linker 2-6 via B1; not fully specified; reading uncertain) [peptide 31]	14
Pentanoyl-ECYLACIEELIRKAQEQQEKNEAALR-NH2 (linker 2-6 via B1; reading uncertain) [peptide 41]	2
Suc-ACYLACIEELIRKAQEQQEKNEAAL[dR]-NH2 (linker 2-6 via B1; reading uncertain) [peptide 34]	19
Suc-ACYLACIEALIRA[Nva]QEQQEKNEAALR-NH2 (linker 2-6 via B1; reading uncertain) [peptide 46]	6
Ac-ENYTRQIYRILEESQEQQDRNERDLL-NH2 [Sifuvirtide-PBD]	> 3

These molecules were tested on HIV wild type virus strain IIIB (assay: Standard Anti-Viral-Experiment (AVE), HIV-1 replication assay in MT4-LTR-EGFP cells, wild type IIIB). Details: 3 days, EGFP signal.
Type: cell-based
Source text: • Standard Anti-Viral-Experiment “AVE” (wild type HIV strain IIIB+HIV strain HXB2D side directed mutants V38A and Q40H)
The HIV-1 replication assay measures virus replication (HIV wild type virus strain 111B or HXB2D, or a HIV mutant virus strain HXB2D with mutation V38A or Q40H in the gp41 gene) as an induction of enhanced green fluorescent protein (EGFP) expression. The indicator MT4-LTR-EGFP cells contain an EGFP gene under the control of the HIV-1 LTR promoter sequence. Successful HIV-1 infection results in viral Tat protein expression and subsequent induction of EGFP expression. Compounds/peptides inhibiting HIV-1 infection are expected to reduce EGFP expression as compared to the untreated HIV-infected control.
Serial 4-fold dilutions of test compounds/peptides were mixed with HIV-1 (IIIB, HXB2D, or a HXB2D mutant virus (V38A or Q40H)) and MT4-LTR-EGFP cells and incubated at 37° C. After 3 days, the wells were examined for EGFP expression using an argon laser-scanning microscope. The effective compound/peptide concentration inhibiting 50% of the virus-induced EGFP signal (EC50) was determined by linear interpolation of the EGFP signal vs. logarithm of the compound concentration; (T20, C34 and Sifuvirtide were added as reference compounds). For the V38A and Q40H mutant viruses, results were reported as a fold change in EC50, as compared with a drug-susceptible wild type strain HXB2D, which forms the backbone of the mutant virus. • Standard AVE (50% Human Serum)

Molecule	EC50 [µM]
NNYTSLIHSLIEESQNQQEKNEQELL [C34-PBD*, reference compound]	> 49.2
